Reference: the supplement of paper PMC12636428

Tested on: Saccharomyces cerevisiae
Test: transcriptional activation domain activity (GFP:mCherry ratio, weighted mean of sorted bins, harmonized to initial dataset scale) (arbitrary fluorescence ratio units); higher = stronger transcriptional activation
Conditions: beta-estradiol 1 µM; induction time 4 h
Procedure, shortened: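 Values are activation activity, found as the read-weighted mean of bin median fluorescence, averaged across barcodes and then mapped linearly onto the initial dataset scale. Barcoded protein tiles fused to an estradiol-inducible synthetic transcription factor were integrated at the URA3 locus of GFP-reporter yeast diploids. Cells were induced for 4 hours at 30 °C with 1 uM beta-estradiol in SC, sorted into 8 bins by GFP:mCherry ratio, and barcode-sequenced, with tiles under 50 reads discarded.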

## ESEGDPEPQPAKSQSRRRQSRGRGRRGAESDSESVARSDVSATGGRRNRQRQK
  transcriptional activation domain activity: 43500

## LRAEGLFQCNYLSYFIELTRYTFLFSMFLILLRSGWFGTSGLFLGMLWHQLVF
  transcriptional activation domain activity: 37500

## LFEIDQRLGLLVPRNGINTSLVILKVIAKLLEKASIYNHFTLGIVWLRKSILV
  transcriptional activation domain activity: 49900

## VQKNYIMQYGNSLIGHQLKTLVQVNAFHVYDLVDSMQFLLTKVISELATLLWF
  transcriptional activation domain activity: 59200

## VNDNSTGSTDSTGSTGNKNKKNNNNSDDVLPFISESPFDMNQVTNFFSPGSTG
  transcriptional activation domain activity: 38600

## GANAGGARPSSRTSNKKPTSSASPPNDSNDSNKKKDADAKKHDGKKAERGGGR
  transcriptional activation domain activity: 29100

## YDIVCQWWRNLVDRLKELPPLVRISLILELCQFVIPKMHIHSHTLLCQLLFSL
  transcriptional activation domain activity: 59100

## HFLLLPSLFLFSSFLPFLTSLPPHSPFFFLSFLFFSPLFSLFFLFINSTHFLP
  transcriptional activation domain activity: 41700

## SISFIGHRMMFWFFACVGLACLFMAGALAVMCLHYLLMIFLFYLRCYPPYLGS
  transcriptional activation domain activity: 31900

## AAGGGGTGAGGAAGAARAAGHGAVGAAAGDGEQREGRAGRGRGHGRGVEGGRG
  transcriptional activation domain activity: 59200

## LWFFFKGMDGMLHPPCSTWTFFFAKVNLYTWLRTFMKIVFVFMGLLHAIIIFW
  transcriptional activation domain activity: 60200

## MISFPLFDPVVFNPFLFYDILSSFCSCFSFFFSLLFFPILQYPFLFFSCFFIA
  transcriptional activation domain activity: 60100

## MLLASGCWIQSTYGLFYKCLYFFYLAIFFDHFTFSLNNFLITQCRYPIISLFI
  transcriptional activation domain activity: 78000

## EREERRRQERAKEEAEGGNRRGKKNKGEAGGGKRGRGKRPRRGRRKGQRARGG
  transcriptional activation domain activity: 34400

## SHPDIMDAAVIGVEGEGTEVPRAYVVADRKKVNEKKVQEWVKGRTARNKRLRG
  transcriptional activation domain activity: 25900

## KHLAEAGLGIAAAGAAKELYDHRKHHRSSSVSSSGGEHNHNGRHIAAAALGAT
  transcriptional activation domain activity: 28000

## EDGRGSRRRKSRSRGREEEDSSSRRRKDRSRSRSVDKERKKRKRDKSEDRKAR
  transcriptional activation domain activity: 31800

## PNLLMPCPWRSMDLCIFFRLAVGFFFLFLFPLSLSLPPSPFFFLFFSTPVIMV
  transcriptional activation domain activity: 62500

## SSNGEEQSINNKNDIDDNSAYRRNNFRNSSNSGSHTFQLSDLDLDVDMRMDSA
  transcriptional activation domain activity: 41100

## ERKDREKMKAKLKEAKREKQRKERAREREKERERKRKEKEKEKKRKEKERERK
  transcriptional activation domain activity: 38000

## EQRAEGVGERRGEGGGEAQRDGAADARRHERAAEGPVRHGERRREVQEGVQGV
  transcriptional activation domain activity: 23500

## AYTSTMFLQWHNHMVEFYHLRCMLGATLRNLDNENPGASLPVQLWLLFAWHML
  transcriptional activation domain activity: 42100

## MLVLILTLYYFSNYLKSTHQLLSMNLLSSDDLCGILVRDNIIFSILFTFPKIL
  transcriptional activation domain activity: 63200

## AATSEATTVFWHDPSGFVDRLLGLTRFWFFTLLRYSYRVYFLASRERSRKPLS
  transcriptional activation domain activity: 66100

## AYNLILIIRWCLFIITIYYCYTLVLYHHYKVNFKQLIRKSMSPIKNNNLIHQF
  transcriptional activation domain activity: 65300

## SYYNLLCFSLCVRVCVCFVLLIILSFVSLLCFSFLLCFHCVLPFFFFFVFFFF
  transcriptional activation domain activity: 49200

## LLRAYGRCLAPFPELVTQAYTWFRSWGTSEFRPLTVALLLVTYMQRSPEIKAP
  transcriptional activation domain activity: 70700

## YTRQLALGCVTRLLWTYLFRCTESTVIAFKKLDGIIKTLFPPFRRTIYPSETP
  transcriptional activation domain activity: 61400

## MLHPTIVYPFITHLLLLILLFSLLPRFSYDADMDFLLVFSSFVLLLCFPWFED
  transcriptional activation domain activity: 40400

## EKDKKEETKDEPKKNEVKPETKDDVDEKKDENGRPKLVVKRLRKETTAAAAVA
  transcriptional activation domain activity: 37600

## EDEGEKDDDEEVKEVKEEGDNSGEEGKEGNGEEAKTEEDKPSEEQQQQAKEEA
  transcriptional activation domain activity: < 6570

## FYMQLCVNIFLASGFIYILYCAWGAIISDVDIEASKHMSEVLVDIALCAKQYN
  transcriptional activation domain activity: 22900

## NPERRTGGRGGEGEKGRRREERDAGNRRRGGRNRAQRPKKGRRREGGRRGRGR
  transcriptional activation domain activity: 48800

## MGSQLPHLQLSDTDGAGPMKRRRPALACVECRRRKVKCDRKKPCSPCTRIKSL
  transcriptional activation domain activity: 69900
